The values below are quoted from earlier work in publication PMC1513386.

Where two headings read alike, the source gives them in different places.

Some targets named below: Asp26 (UniProt position 26, KLVVVDFSATW); Glu68 (UniProt position 68, QDVASECEVKC); Asp59 (UniProt position 80, VCCSTDKCN--); Asp106 (UniProt position 134, DGGTYDIYTTT); Glu172 (UniProt position 200, QVMATEGYQSS); Asp11 (UniProt position 39, WQNWTDGGGIV); Asp83 (UniProt position 111, EYYVVDSWGTY).
A further data set concerns the target Glu96 (UniProt position 123, DHYLLEFPTFP). Put plainly: NMR.
A further data set concerns the target Glu115 (UniProt position 142, SKKPKENPGPA). Put plainly: NMR.
The target in a further data set is Asp87 (UniProt position 105, ALLSSDITASV). In words: NMR.
Another data set has as its target Glu7 (UniProt position 25, VYGRCELAAAM). In words: NMR.
A further data set addresses Asp18 (UniProt position 36, KRLGLDNYRGY). Put plainly: NMR.
The target in the next data set is Asp66 (UniProt position 84, RWWCNDGRTPG). Put plainly: NMR.
The target of another data set is Glu35 (UniProt position 53, CAAKFESNFNT). In words: NMR.
A further data set has as its target Asp48 (UniProt position 66, TNRNTDGSTDY). Put plainly: NMR.
For a further data set, the target named is Asp102 (UniProt position 102, PVKNVDLWQRL). Put plainly: NMR.
A further data set deals with Asp70 (UniProt position 70, VILSTDSQYVR). In words: NMR.
The target of another data set is Asp148 (UniProt position 148, NPTLEDTGYQV). In words: NMR.
The target of a further data set is Asp10 (UniProt position 10, VEIFTDGSCLG). Put plainly: NMR.
A further data set addresses Glu2 (UniProt position 2, ----MENLNMD). Put plainly: NMR.
The target of a further data set is Asp61 (UniProt position 61, VMGLVDAIPMI). Put plainly: NMR.
The target of another data set is Asp7 (UniProt position 7, ENLNMDLLYMA). In words: NMR.
In a further data set the target is Glu37 (UniProt position 37, GGKFLEGAARQ). Put plainly: NMR.
For the next data set, the target named is Asp44 (UniProt position 44, AARQPDLIPLL). Put plainly: NMR.
A further data set deals with Glu6 (UniProt position 6, MVKQIESKTAF). As to conditions: listed under PDB 1TRS; redox state not stated in the article, and 1TRS is the oxidised form (inferred).
The next data set concerns the target Asp54 (UniProt position 101, KSIGGDIFSNR). The following applies: not stated (values are paired with the folded structure 1A2P; ref 20 covers native and denatured states).
The next data set has as its target Asp93 (UniProt position 140, ILYSSDWLIYK). The following applies: not stated (values are paired with the folded structure 1A2P; ref 20 covers native and denatured states).
The next data set deals with Glu73 (UniProt position 120, GRTWREADINY). The following applies: not stated (values are paired with the folded structure 1A2P; ref 20 covers native and denatured states).
Data set [1] deals with Asp101 (UniProt position 148, IYKTTDHYQTF). As to conditions: not stated (values are paired with the folded structure 1A2P; ref 20 covers native and denatured states).
The target in a further data set is Asp30 (UniProt position 50, NQCSTDSGYSM). Put plainly: NMR.
Another data set concerns the target Asp72 (UniProt position 92, NPPNCDLTVPT). In words: NMR.
The next data set addresses Asp21 (UniProt position 41, VSILSDASFNQ). In words: NMR.
Data set [2] addresses Asp101 (UniProt position 129, GTVKSDGGTYD).
Setting [3] is: listed under PDB 1TRS, redox state not stated in the article, and 1TRS is the oxidised form (inferred).
Where [4] appears, read: listed under PDB 1TRW, redox state not stated in the article, and 1TRW is the reduced form (inferred).

As to “Alpha-sarcin (cytotoxic ribonuclease) (Aspergillus giganteus)”, the pKa (usually the pH at which an ionisable group is half protonated) with Glu96 is given as 5.10; with Glu115, 4.90.
“Lysozyme C (turkey egg white) (Meleagris gallopavo)”: the pKa in the data set with Asp87 is given as 2.10; with Glu7, 2.70; in the data set with Asp18, 2.70; with Asp66 it was 2.00; with Glu35, 6.10; with Asp48 it was 2.50.
Regarding Ribonuclease HI (Escherichia coli), the pKa with Asp102 is reported as 2.00; in the data set with Asp70, 2.60; with Asp148, 2.00; in the data set with Asp10 it was 6.10.
For “F1Fo ATP synthase subunit c (Escherichia coli)”, the pKa is 5.50 with Glu2; 7.00 with Asp61; 5.60 with Asp7; 5.50 with Glu37; 5.60 with Asp44.
Thioredoxin (Homo sapiens): the pKa with Asp26 (setting [3]) is on record as 8.10; with Asp26 (setting [4]) it was 9.90; in the data set with Glu68 (setting [3]), 5.10; in the data set with Glu68 (setting [4]) it was 4.90; in the data set with Glu6 it was 4.90.
As for “Snake cardiotoxin (PDB 1KXI, cardiotoxin V / A5) (Naja atra)”, the pKa with Asp59 is given as 2.30.
In the case of “Barnase (ribonuclease) (Bacillus amyloliquefaciens)”, the pKa was 2.00 with Asp54, 2.00 with Asp93, 2.10 in the data set with Glu73 and 2.00 with Asp101 [1].
On to “Beta-elicitin cryptogein (Phytophthora cryptogea)”, for which the pKa with Asp30 is on record as 2.50; in the data set with Asp72 it was 2.60; with Asp21, 2.50.
Regarding “Endo-1,4-beta-xylanase (Bacillus circulans xylanase) (Bacillus circulans)”, the pKa with Asp106 is 2.70; with Glu172, 6.70; with Asp11, 2.50; with Asp83, 2.00; with Asp101 [2], 2.00.
